From patent US20200062863A1 (CSL BEHRING, published 2020)
Numbering of substitutions follows the chain as printed.

How the values were obtained:
Assay in all cases: Western blot of culture supernatant (non-reducing SDS-PAGE) probed with 3F7 mAb, anti-human IgG-FITC
W420R = target: T1, W420R
T1 construct: also called Mu-FXII W420R mutant with C-terminal 8xHis-tag; mutant d)
T1 single chain: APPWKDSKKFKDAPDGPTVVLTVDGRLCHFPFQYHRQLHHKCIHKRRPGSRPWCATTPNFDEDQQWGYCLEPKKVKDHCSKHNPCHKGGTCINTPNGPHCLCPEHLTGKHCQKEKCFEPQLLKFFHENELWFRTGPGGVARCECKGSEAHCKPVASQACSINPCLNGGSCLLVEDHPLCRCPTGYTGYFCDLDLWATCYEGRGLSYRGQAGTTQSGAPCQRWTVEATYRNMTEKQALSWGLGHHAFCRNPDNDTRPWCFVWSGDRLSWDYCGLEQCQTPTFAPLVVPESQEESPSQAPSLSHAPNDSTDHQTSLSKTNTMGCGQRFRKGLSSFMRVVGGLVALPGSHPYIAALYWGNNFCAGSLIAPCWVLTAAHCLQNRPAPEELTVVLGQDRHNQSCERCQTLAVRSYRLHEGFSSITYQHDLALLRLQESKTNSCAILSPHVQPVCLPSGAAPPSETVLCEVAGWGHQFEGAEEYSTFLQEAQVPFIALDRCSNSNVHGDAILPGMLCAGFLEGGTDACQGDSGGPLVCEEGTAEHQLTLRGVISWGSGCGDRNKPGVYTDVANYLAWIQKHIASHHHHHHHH
Method: (§1) Proteins were then transferred electrophoretically onto nitrocellulose filters and blocked for 1 hour in 5% Milk powder in Tris-buffered saline with 0.05% Tween-20 (TTBS). Filters were then incubated for 1 hour with either 3F7 mAb or an anti-His mAb 3H3 (both at […] in TTBS with 5% Milk powder), washed thoroughly with TTBS, then incubated for a further hour with anti-human IgG-FITC or anti-mouse IgG-FITC, respectively (Millipore, USA; both at 0.25 mg/ml in TTBS with 5% Milk powder). Following further washing of membranes in TTBS, Ab-FITC bound proteins were visualized using a Typhoon variable mode analyzer (GE Healthcare, USA).

G472S = target: T2, G472S
T2 construct: also called Mu-FXII G472S mutant with C-terminal 8xHis-tag; mutant k)
T2 single chain: T1 single chain with R401W, G453S
Method: as §1

A589D = target: T3, A589D
T3 construct: also called Mu-FXII A589D mutant with C-terminal 8xHis-tag; mutant n)
T3 single chain: T1 single chain with R401W, A570D
Method: as §1

Q450R = target: T4, Q450R
T4 construct: also called Mu-FXII Q450R mutant with C-terminal 8xHis-tag; mutant g)
T4 single chain: T1 single chain with R401W, Q431R
Method: as §1

Measured: binding result

B1: monoclonal antibody 3F7 (fully human IgG4/lambda) (antibody, V domains shown)
VH: EVQLLESGGGLVQPGGSLRLSCAASGFTFSKYIMQWVRQAPGKGLEWVSGIRPSGGTTVYADSVKGRFTISRDNSKNTLYLQMNSLRAEDTAVYYCARALPRSGYLISPHYYYYALDVWGQGTTVTVSS
VL: QSELTQPPSASGTPGQRVTISCSGSSSNIGRNYVYWYQQVPGTAPKLLIYSNNQRPSGVPDRFSGSKSGTSASLVISGLRSEDEADYYCAAWDASLRGVFGGGTKLTVLG
notes: also called 3F7 mAb; MAb 3F7
binds: W420R | G472S | A589D | Q450R
